Experiment in all cases: ITC
For test [1], the target named is Human Scribble PDZ3 domain (human) (UniProt Q14160).
The target in test [2] is Human Scribble PDZ1 domain (human) (UniProt Q14160).
The target of test [3] is T1, Human Scribble PDZ3 domain (human, UniProt Q14160 1002-1092).
T1 sequence: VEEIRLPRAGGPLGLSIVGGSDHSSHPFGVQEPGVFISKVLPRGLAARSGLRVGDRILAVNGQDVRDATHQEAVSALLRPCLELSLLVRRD

Test [4] concerns the target Human Scribble PDZ1 domain (human, UniProt Q14160 700-816).
A further test addresses Scribble PDZ1 R762A (human, UniProt Q14160 700-816, R762A).
The target of the next test is T2, Scribble PDZ3 K1040A (human, UniProt Q14160 1002-1092, K1040A).
T2 sequence: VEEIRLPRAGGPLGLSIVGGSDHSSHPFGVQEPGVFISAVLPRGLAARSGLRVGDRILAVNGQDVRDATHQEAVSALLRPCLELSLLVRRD

For 3 molecules, Kd results are on record in article PMC10266016 (Proceedings of the National Academy of Sciences of the …, 2023).

Sequence of Human Scribble PDZ1 domain (Q14160 700-816): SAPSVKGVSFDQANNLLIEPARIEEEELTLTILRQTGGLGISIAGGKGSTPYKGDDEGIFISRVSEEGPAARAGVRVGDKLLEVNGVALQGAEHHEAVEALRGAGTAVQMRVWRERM
Sequence of Scribble PDZ1 R762A (Q14160 700-816 R762A): as the sequence (Q14160 700-816) above, with R63A counted along it
Sequence of Human Scribble PDZ1 domain (human) (Q14160 700-816): as the sequence (Q14160 700-816) above

Take PTHR PBM peptide, 4-mer: the figures for the Kd in test [1] and in test [2] were 17.1 µM and 57 µM, respectively.

DEEASGPERPPALLQEEWETVM [PTHR PBM peptide, 22-mer]: the Kd in test [3] came to 19.2 µM; in test [4], 11.5 µM.

For the molecule QEEWETVM [PTHR PBM peptide, 8-mer], the Kd in test [3] came to 13.4 µM; with Scribble PDZ1 R762A it was 39.9 µM; in test [4] it was 31.7 µM; in the test with Scribble PDZ3 K1040A it was 23.5 µM.
